This note sets out measurements from the Immune Epitope Database (IEDB).

Assay [1] concerns the target HLA-A*03:01. As to the kind of experiment: IEDB peptide-MHC binding, purified MHC/competitive/fluorescence; ≥ and ≤ were set here for values at or beyond the usual limits of such assays.
Assay [2] addresses HLA-B*08:01. As to the kind of experiment: IEDB peptide-MHC binding, purified MHC/competitive/fluorescence; filed as Kd, often an IC50 or EC50 that approximates it; ≥ and ≤ were set here for values at or beyond the usual limits of such assays.
Assay [3] addresses HLA-A*01:01. The description is as above.
Assay [4] addresses HLA-A*02:19. As to the kind of experiment: IEDB peptide-MHC binding, purified MHC/direct/fluorescence; filed as Kd, often an IC50 or EC50 that approximates it; ≥ and ≤ were set here for values at or beyond the usual limits of such assays.
For assay [5], the target named is HLA-A*24:03. The description is as above.
For assay [6], the target named is HLA-A*02:11. The description is as above.
Assay [7] addresses HLA-A*02:16. Described as above.
Assay [8] has as its target HLA-A*02:03. Described as above.
Assay [9] concerns the target HLA-A*02:12. The assay is described as above.
The target of assay [10] is HLA-A*29:02. Described as above.
Assay [11] deals with HLA-A*03:01. The assay is described as above.
In assay [12] the target is HLA-A*69:01. The assay can be described thus: IEDB peptide-MHC binding, purified MHC/competitive/fluorescence; filed as Kd, often an IC50 or EC50 that approximates it; ≥ and ≤ were set here for values at or beyond the usual limits of such assays.
The target in assay [13] is HLA-B*27:03. The description is as above.
Assay [14] deals with HLA-B*46:01. Described as above.
The target in assay [15] is HLA-A*26:01. The description is as above.
Assay [16] addresses HLA-B*15:01. The description is as above.
The target of assay [17] is HLA-B*15:17. Described as above.
Assay [18] deals with HLA-B*57:01. The description is as above.
In assay [19] the target is HLA-B*51:01. The assay is described as above.
Assay [20] deals with HLA-B*39:01. The description is as above.
Assay [21] concerns the target HLA-B*35:01. The assay is described as above. The following applies: source organism: Yersinia pestis Antiqua.
Assay [22] has as its target HLA-A*29:02. The assay is described as above. The following applies: source organism: Streptococcus pneumoniae D39.
The target in assay [23] is HLA-A*11:01. The assay can be described thus: IEDB peptide-MHC binding, purified MHC/competitive/fluorescence; ≥ and ≤ were set here for values at or beyond the usual limits of such assays.
The target of assay [24] is HLA-B*15:42. The assay can be described thus: IEDB peptide-MHC binding, purified MHC/competitive/fluorescence; filed as Kd, often an IC50 or EC50 that approximates it; ≥ and ≤ were set here for values at or beyond the usual limits of such assays.
Assay [25] deals with HLA-B*83:01. The description is as above.
Assay [26] has as its target HLA-B*45:06. Described as above.
For assay [27], the target named is HLA-A*24:02. The assay can be described thus: IEDB peptide-MHC binding, purified MHC/competitive/fluorescence; ≥ and ≤ were set here for values at or beyond the usual limits of such assays.
Assay [28] addresses HLA-A*02:01. The description is as above.
Assay [29] concerns the target HLA-B*07:02. The assay can be described thus: IEDB peptide-MHC binding, purified MHC/direct/fluorescence; filed as Kd, often an IC50 or EC50 that approximates it; ≥ and ≤ were set here for values at or beyond the usual limits of such assays. The following applies: source organism: Tanganya virus.
Assay [30] has as its target HLA-A*68:02. The assay is described as above. To be noted: source organism: Orthohantavirus sangassouense.
Assay [31] has as its target HLA-B*18:01. As to the kind of experiment: IEDB peptide-MHC binding, purified MHC/competitive/fluorescence; filed as Kd, often an IC50 or EC50 that approximates it; ≥ and ≤ were set here for values at or beyond the usual limits of such assays. The following applies: source organism: Kurkino virus.
Assay [32] concerns the target HLA-A*02:01. Described as above.
Assay [33] deals with HLA-A*01:01. As to the kind of experiment: IEDB peptide-MHC binding, purified MHC/direct/fluorescence; filed as Kd, often an IC50 or EC50 that approximates it; ≥ and ≤ were set here for values at or beyond the usual limits of such assays. To be noted: source organism: Mus musculus.
[34] abbreviates: source organism: Orthohantavirus andesense.
Where [35] appears, read: source organism: Yersinia pestis Antiqua.
The mark [36] stands for this setting: source organism: Vaccinia virus WR.
The mark [37] stands for this setting: source organism: Zaire ebolavirus.
The mark [38] stands for this setting: source organism: Human herpesvirus 4 strain B95-8.
[39] abbreviates: source organism: Escherichia coli 536.
[40] abbreviates: source organism: Vaccinia virus Copenhagen.
Where [41] appears, read: source organism: Orthohantavirus sangassouense.
Setting [42] is: source organism: Sudan ebolavirus.

Usually IC50 stands for the midpoint of a concentration-inhibition curve. The low end stands for greater potency, the high end for weaker potency. As for VLFGLGFAI, in assay [1] (source organism: Mus musculus), the IC50 is 12.6 µM.
The Kd is the equilibrium constant for the complex coming apart. Low readings indicate tighter binding, high ones weaker binding. RLKTTENSF displayed a dissociation constant Kd in assay [2] (source organism: Influenza A virus (A/Northern Territory/60/1968(H3N2))) of at least 20 µM.
On to FLQMENLMY, for which the dissociation constant Kd in [3] (source organism: Bacillus anthracis str. A0488) was 0.0021 µM.
For the sequence IQNALEKAL, the Kd in assay [4] (setting [34]), in [5] (setting [34]), in [6] (setting [34]), in assay [7] (setting [34]), in [8] (setting [34]) and in assay [9] (setting [34]) was at least 20 µM throughout. The Kd in assay [10] (setting [34]), in [11] (setting [34]), in assay [12] (setting [34]), in [13] (setting [34]), in assay [14] (setting [34]) and in assay [15] (setting [34]) was at least 20 µM in each case. Besides, the equilibrium dissociation constant (Kd) in assay [16] (setting [34]) is 0.197 µM; in [17] (setting [34]), at least 20 µM; in assay [18] (setting [34]), at least 20 µM; in assay [19] (setting [34]), at least 20 µM.
Turning to MPARLWLCL, the equilibrium dissociation constant (Kd) in assay [2] (setting [35]) is 0.383 µM; in assay [20] (setting [35]), 0.108 µM; in assay [21] it was 0.0008 µM; in assay [19] (setting [35]), at least 20 µM.
GVNFNLYYY: the dissociation constant (Kd) in assay [3] (source organism: Streptococcus pneumoniae D39) was 0.021 µM; in [22], at most 0.0001 µM.
Regarding ETLGYCMIR, the IC50 in [23] (setting [36]) was 25.2 µM; in assay [1] (setting [36]) it was at least 248 µM.
For TSPQSLTTK, the IC50 in assay [23] (setting [37]) amounted to 1.76 µM; in assay [1] (setting [37]), 22.3 µM.
As for DEVEFLGHY, the equilibrium dissociation constant (Kd) in [24] (setting [38]), in assay [25] (setting [38]) and in assay [26] (setting [38]) was at least 5 µM in each case.
With VSSGKNIKR, the concentration for half-maximal inhibition (IC50) in assay [23] (setting [37]) is 4.31 µM; in assay [1] (setting [37]) it was at least 82.2 µM; in assay [27] (setting [37]), at least 163 µM; in [28] (setting [37]), at least 140 µM.
As for QAFYTRVLK, the half-maximal inhibitory concentration (IC50) stood at 0.311 µM in [23] (setting [36]) and 1.47 µM in [1] (setting [36]).
As to FGGVPREVL, the Kd in assay [2] (setting [39]) and in assay [20] (setting [39]) was at least 20 µM each time.
Consider VYGNIKHKE, for which the 50% inhibitory concentration (IC50) in assay [23] (setting [40]) is 69.1 µM; in assay [1] (setting [40]) it was at least 158 µM; in assay [27] (setting [40]) it was 34.9 µM.
SPGDNSAKF: the Kd in [4] (setting [41]), in assay [5] (setting [41]), in assay [6] (setting [41]), in [7] (setting [41]), in assay [8] (setting [41]) and in assay [9] (setting [41]) was at least 20 µM throughout. The Kd in assay [10] (setting [41]) was at least 20 µM; in [29], 1.96 µM; in assay [11] (setting [41]), at least 20 µM; in assay [30] it was at least 20 µM; in assay [31] it was at least 20 µM; in assay [12] (source organism: Kurkino virus) it was at least 20 µM. In addition, the dissociation constant Kd in assay [13] (source organism: Kurkino virus), in assay [14] (source organism: Kurkino virus), in [15] (source organism: Kurkino virus), in assay [16] (source organism: Kurkino virus), in assay [20] (source organism: Kurkino virus) and in [17] (source organism: Kurkino virus) was at least 20 µM in each case. The dissociation constant Kd in assay [18] (source organism: Kurkino virus), in [32] (source organism: Kurkino virus) and in [19] (source organism: Kurkino virus) was at least 20 µM throughout.
As to LRRWGGTCR, the IC50 in [1] (setting [42]) was at least 200 µM; in assay [28] (setting [42]), at least 645 µM.
With ENALRGVAV, the Kd in assay [2] (source organism: Escherichia coli) was 0.377 µM.
Turning to SVDSDHLGY, the Kd in assay [33] is 0.0007 µM; in assay [12] (source organism: Homo sapiens) it was at least 20 µM; in [13] (source organism: Homo sapiens) it was at least 20 µM; in assay [14] (source organism: Homo sapiens), at least 20 µM; in assay [24] (source organism: Homo sapiens), at least 5 µM; in [25] (source organism: Homo sapiens) it was at least 5 µM. For the same sequence, the equilibrium dissociation constant (Kd) was at least 20 µM in assay [20] (source organism: Homo sapiens); at least 20 µM in [18] (source organism: Homo sapiens); at least 20 µM in assay [32] (source organism: Homo sapiens); at least 20 µM in assay [19] (source organism: Homo sapiens); at least 5 µM in [26] (source organism: Homo sapiens).
